Laboratory results taken from patent publication US20170137818, “APTAMER INHIBITING BIOLOGICAL ACTIVITY OF AUTOTAXIN BY BINDING WITH AUTOTAXIN, AND USE THEREOF” (RIBOMIC INC., published 2017).

B1: 12(25) (ssDNA)
DNA: CCTGGACGGAACCAGAATACTTTTGGTCTCCAGG
modifications: 2'-OMe C1,C2,T3,G4,G5,C7,G9,C12,C13,A14,G15,T18,A19,C20,A32,G33,G34; 5' idT, 3' idT
B2: SEQ 4 aptamer (ssDNA)
DNA: GTGGTCTAGCTGTACTCTCCGGAACCAGAGCAATTTGGTCGAGCGCTATCGGATGGTCCACAGTCAACGAGCTA
B3: SEQ 23 aptamer (ssDNA)
DNA: ACACTCACAGGCGCTGGCACGGACCGGAACCGGGACGCTCGGTCGACCGTGCATGGCCGCTAGT
B4: SEQ 6 aptamer (ssDNA)
DNA: GTGGTCTAGCTGTACTCGGAACCGTACTCAACGGTCAGTACCTTTGCGCCGCAGCAAGCCACAGTCAACGAGCTA
B5: SEQ 21 aptamer (ssDNA)
DNA: ACACTCACAGGCGCTGGCCACCACTGCACCGGAACCGCGAATGTGGTCGTGCATGGCCGCTAGT
B6: SEQ 9 aptamer (ssDNA)
DNA: GTGGTCTAGCTGTACTCAGGCCGGAACCGGTGAAATTGGTCGCCTAATAAGCGAAATCCACAGTCAACGAGCTA
B7: SEQ 25 aptamer (ssDNA)
DNA: ACACTCACAGGCGCTGGCGACGTCGGAACCGTGTACCATGGTCACGTCGTGCATGGCCGCTAGT
B8: SEQ 24 aptamer (ssDNA)
DNA: ACACTCACAGGCGCTGGCGAGTCGGAACCGAGCCGATTGGTCACTCGCGTGCATGGCCGCTAGT
B9: SEQ 20 aptamer (ssDNA)
DNA: ACACTCACAGGCGCTGGGGTACGCTCGGAACCGAGGCAATTGGTCAGCGTGCATGGCCGCTAGT
B10: SEQ 5 aptamer (ssDNA)
DNA: GTGGTCTAGCTGTACTCATGGACGGAACCAGAATACTTTTGGTCTCCATTGAGTACGCCACAGTCAACGAGCTA
B11: SEQ 22 aptamer (ssDNA)
DNA: ACACTCACAGGCGCTGGCCGGAACCGTGCATATGGTCGCCAGCACATCGTGCATGGCCGCTAGT
B12: SEQ 10 aptamer (ssDNA)
DNA: GTGGTCTAGCTGTACTCGCCGGAACCGTACTATGGTCGCGTTGTATGACGCTTGTATCCACAGTCAACGAGCTA

Biological target: autotaxin (endogenous, human pooled serum) (Homo sapiens, UniProt Q13822 Q13822:36-863)
Experiment: inhibition; LPA production in serum, 5.0 uM

Compared with CCTGGACGGAACCAGAATACTTTTGGTCTCCAGG (ssDNA, 2'-OMe C20) [12(19)], CCTGGACGGAACCAGAATACTTTTGGTCTCCAGG (ssDNA, 2'-OMe T29) [12(9)] is lower in activity: 90 % inhibition for the first, 78 % inhibition for the second.

First: CCTGGACGGAACCAGAATACTTTTGGTCTCCAGG (ssDNA, 5' idT, 3' idT) [12(22)]
Second: CCTGGACGGAACCAGAATACTTTTGGTCTCCAGG (ssDNA, 2'-OMe T23,T24) [12(5)]
The activity of the first is higher: 91 % inhibition for the first, 15 % inhibition for the second.

First: CCTGGACGGAACCAGAATACTTTTGGTCTCCAGG (ssDNA, 2'-OMe G4,G5) [12(21)]
Second: CCTGGACGGAACCAGAATACTTTTGGTCTCCAGG (ssDNA, 2'-OMe T22) [12(28)]
The activity of the first is higher: 84 % inhibition for the first, 64 % inhibition for the second.

First: CCTGGACGGAACCAGAATACTTTTGGTCTCCAGG (ssDNA, 2'-OMe T18) [12(17)]
Second: CCTGGACGGAACCAGAATACTTTTGGTCTCCAGG (ssDNA, 2'-OMe C12,C13) [12(4)]
The activity of the first is higher: 83 % inhibition for the first, 82 % inhibition for the second.

Compared with CCTGGACGGAACCAGAATACTTTTGGTCTCCAGG (ssDNA, 2'-OMe A6) [12(8)], CCTGGACGGAACCAGAATACTTTTGGTCTCCAGG (ssDNA, 2'-OMe C1) [12(41)] is higher in activity: 69 % inhibition for the first, 85 % inhibition for the second.

Compared with CCTGGACGGAACCAGAATACTTTTGGTCTCCAGG (ssDNA, 2'-OMe C2) [12(40)], CCTGGACGGAACCAGAATACTTTTGGTCTCCAGG (ssDNA, 2'-OMe G8) [12(13)] is lower in activity: 84 % inhibition for the first, 74 % inhibition for the second.

Compared with CCTGGACGGAACCAGAATACTTTTGGTCTCCAGG (ssDNA, 2'-OMe G26) [12(29)], CCTGGACGGAACCAGAATACTTTTGGTCTCCAGG (ssDNA, 2'-OMe C30) [12(37)] is higher in activity: 84 % inhibition for the first, 85 % inhibition for the second.

Compared with CCTGGACGGAACCAGAATACTTTTGGTCTCCAGG (ssDNA, 2'-OMe T23) [12(34)], CCTGGACGGAACCAGAATACTTTTGGTCTCCAGG (ssDNA, 2'-OMe C31) [12(38)] is higher in activity: 55 % inhibition for the first, 83 % inhibition for the second.

Going from CCTGGACGGAACCAGAATACTTTTGGTCTCCAGG (ssDNA, 5' 40 kDa PEG (GL2-400GS2) via ssH linker, 3' idT) [12(23)] to CCTGGACGGAACCAGAATACTTTTGGTCTCCAGG (ssDNA, 2'-OMe G9) [12(14)], the activity rises from 90 % inhibition to 95 % inhibition.

First: CCTGGACGGAACCAGAATACTTTTGGTCTCCAGG (ssDNA, 2'-OMe C13) [12(32)]
Second: CCTGGACGGAACCAGAATACTTTTGGTCTCCAGG (ssDNA, 2'-OMe G4) [12(35)]
The activity of the first is higher: 85 % inhibition for the first, 82 % inhibition for the second.

First: CCTGGACGGAACCAGAATACTTTTGGTCTCCAGG (ssDNA, 2'-OMe C12) [12(31)]
Second: CCTGGACGGAACCAGAATACTTTTGGTCTCCAGG (ssDNA, 2'-OMe A10) [12(15)]
The activity of the first is higher: 87 % inhibition for the first, 68 % inhibition for the second.

Going from CCTGGACGGAACCAGAATACTTTTGGTCTCCAGG (ssDNA, 2'-OMe C7,G9,A14,G15,A19,C20,A32,G33,G34; 5' idT, 3' idT) [12(24)] to CCTGGACGGAACCAGAATACTTTTGGTCTCCAGG (ssDNA, 2'-OMe A17) [12(16)], the activity falls from 96 % inhibition to 83 % inhibition.

First: CCTGGACGGAACCAGAATACTTTTGGTCTCCAGG (ssDNA, 2'-OMe T27) [12(11)]
Second: CCTGGACGGAACCAGAATACTTTTGGTCTCCAGG (ssDNA, 2'-OMe A11) [12(10)]
The activity of the first is higher: 38 % inhibition for the first, 26 % inhibition for the second.

Going from B1 to CCTGGACGGAACCAGAATACTTTTGGTCTCCAGG (ssDNA, 2'-OMe T3) [12(39)], the activity rises from 84 % inhibition to 85 % inhibition.

First: CCTGGACGGAACCAGAATACTTTTGGTCTCCAGG (ssDNA, 2'-OMe A19) [12(18)]
Second: CCTGGACGGAACCAGAATACTTTTGGTCTCCAGG (ssDNA, 2'-OMe A14,G15) [12(7)]
The activity of the first is higher: 93 % inhibition for the first, 88 % inhibition for the second.

Going from CCTGGACGGAACCAGAATACTTTTGGTCTCCAGG (ssDNA, 2'-OMe G5) [12(36)] to CCTGGACGGAACCAGAATACTTTTGGTCTCCAGG (ssDNA, 2'-OMe T24) [12(33)], the activity falls from 84 % inhibition to 62 % inhibition.

First: CCTGGACGGAACCAGAATACTTTTGGTCTCCAGG (ssDNA, 2'-OMe C7) [12(12)]
Second: CCTGGACGGAACCAGAATACTTTTGGTCTCCAGG (ssDNA, 2'-OMe A16) [12(27)]
The activity of the first is higher: 94 % inhibition for the first, 86 % inhibition for the second.

First: CCTGGACGGAACCAGAATACTTTTGGTCTCCAGG (ssDNA, 2'-OMe C28) [12(26)]
Second: CCTGGACGGAACCAGAATACTTTTGGTCTCCAGG (ssDNA, 2'-OMe G25) [12(30)]
The activity of the first is lower: 35 % inhibition for the first, 75 % inhibition for the second.

First: CCTGGACGGAACCAGAATACTTTTGGTCTCCAGG (ssDNA, 2'-OMe T21) [12(20)]
Second: CCTGGACGGAACCAGAATACTTTTGGTCTCCAGG (ssDNA, 2'-OMe G25,G26) [12(6)]
The activity of the first is higher: 76 % inhibition for the first, 63 % inhibition for the second.

Biological target: autotaxin (ENPP2/NPP2) (Homo sapiens, UniProt Q13822 Q13822:36-863)
Experiment: inhibition; NPP2 assay, 37 C

Going from B2 to B3, the IC50 rises from 0.016 µM to 0.075 µM (4.7-fold). The first is the more potent here.

Going from GTACTCATGGACGGAACCAGAATACTTTTGGTCTCCATTGAGTAC (ssDNA) [SEQ 11 aptamer] to B4, the IC50 rises from 0.012 µM to 0.02 µM (1.7-fold). The first is the more potent here.

B5 and B6 are within 1.5-fold of each other in IC50: 0.028 µM for the first, 0.036 µM for the second.

First: GCTGGCCGGAACCGTGCATATGGTCGCCAGC (ssDNA) [SEQ 29 aptamer]
Second: B7
The IC50 of the first is 2.8-fold lower: 0.011 µM for the first, 0.031 µM for the second.

Compared with CGCTGGGGTACGCTCGGAACCGAGGCAATTGGTCAGCG (ssDNA) [SEQ 26 aptamer], B8 is 14-fold lower in IC50: 0.44 µM for the first, 0.032 µM for the second. The second is the more potent here.

First: TACGCTCGGAACCGAGGCAATTGGTCAGCGTG (ssDNA) [SEQ 27 aptamer]
Second: B9
The IC50 of the first is 1.5-fold lower: 0.024 µM for the first, 0.037 µM for the second. The first is the more potent here.

Going from GGGACGGAACCAGAATACTTTTGGTCTCCC (ssDNA) [SEQ 14 aptamer] to B10, the IC50 falls from 0.042 µM to 0.011 µM (3.8-fold). The second is the more potent here.

Compared with CCTGGACGGAACCAGAATACTTTTGGTCTCCAGG (ssDNA) [SEQ 12 aptamer], TGGACGGAACCAGAATACTTTTGGTCTCCA (ssDNA) [SEQ 13 aptamer] is 9.2-fold higher in IC50: 0.012 µM for the first, 0.11 µM for the second. The first is the more potent here.

First: CTGGACGGAACCAGAATACTTTTGGTCTCCAG (ssDNA) [SEQ 16 aptamer]
Second: B11
The IC50 of the first is 1.7-fold lower: 0.018 µM for the first, 0.03 µM for the second. The first is the more potent here.

B12 gave an IC50 of 0.021 µM.
